# Source: the DeepSol protein solubility set
# Assay: soluble on expression in E. coli; label from the status in PepcDB or PDB records
row,Sequence,soluble on expression in E. coli
1,SNAMAKITVGTENQAPIEIYYEDHGTGKPVVLIHGWPLSGRSWEYQVPALVEAGYRVITYDRRGFGKSSQPWEGYEYDTFTSDLHQLLEQLELQNVTLVGFSMGGGEVARYISTYGTDRIEKVVFAGAVPPYLYKSEDHPEGALDDATIETFKSGVINDRLAFLDEFTKGFFAAGDRTDLVSESFRLYNWDIAAGASPKGTLDCITAFSKTDFRKDLEKFNIPTLIIHGDSDATVPFEYSGKLTHEAIPNSKVALIKGGPHGLNATHAKEFNEALLLFLKD,soluble
2,MCFHNSMSAKAIKVAARYGRQSDVVEIYQSILDEQYHVNAFTFPRYPIITSSDEVQVFNWGLIPFWVRSEEDATEIRKMTLNARADTIFEKPSFREPIMKKRCIVPSTGYFEWRHEGANKIPYYIYVKDEPIFSMAGIYDRWLDKDTGEEHETFSIITTDTNSLTDYIDNTKHRMPAILTQEEEEKWLNPSLSKAEIASLLKPFDTEKMDAYVIRNDFLKKSPNDPTIVQRALEHHHHHH,soluble
3,MKKIILIGSGGSGKSTLARQLGNKLNIKVHHLDALFWKPNWEGVPREEQITVQNNLIKDEKWIIDGNYGGTMGIRLNAADTIIFLDIHRTICVYRAFKRIVKYRNKTRPDMGAGCEERFDLQFFKWIWEYPNAKRPTILKELEQLPEEKKVIVLKSPNEVRKFLEHI,soluble
4,DTRNEAEACLRYVKTKFARTMLGILKATQDNPKETWRLVPLQDFTAESDIDWTQPVAEIDRQLYRKYGLNESEIAFVEEKVRPMD,not soluble
5,GMEGLVMNTRRALFADWRVREAMLLAFDFDLINRTLTGGAEPRIASYFSNSALGMEAGAPATGRERALLEPFAADLLPGTLDGYALPATHGASNRGNLRKAARLLSEAGWRIEDGMLEGPGGTPFAFEILLPQGADAMIAASIIYRQALTRLGISARITTVDPAQFKQRVDNQDFDMTSFLRSLTLSPGNEQLLYWSAEDKDLPGSRNLMGMESPAAEAVIRHMLATDDAEEFQASVRALDRVLTAGRYVIPMWYSR,not soluble
6,MHPMNILLKLPLKIPLMIIEKAREILEKHPLCNHCLGRMFAKLGKGTNEERGKAIRLILSMELNREVKEPENCELCQGIFRRMNELLDLVRNAVEDYEFQTFQIGSRFPKDILEKEKKIWEEFGITTGEPINREFNRELGKLFAKVTGKIPNRERPDIVIIVEPFSSKVELQVNPIYVAGRYRKLVRGIPQTPAPGFEESIATIICRVFKKNFRGKCIFKGAGREDVDVRTLGRGRPFVVEIKKPRKRKVDLKLIEEEINSSGKVEVLELKFITPEESEKILTARHKKIYEALVYVKDGVSAEEVEKVVKSLKGSEIKQRTPRRVLNSRADIVRVRRVYNVSGEYIDEHHFKLKLVTDGGLYIKELISGDKGRTKPSVSEILGKEAWCEILDVLDVLDGDENVEGDS,soluble
7,VRRGQLIDAAREITAQHGVAALTIRGVAEAAGVSLGVVHYHFEDKEELLTEMGQSLILEVSEAMRMAFSQLVGPLKKRGVPGLRELLCAGIRGLWPIIEATPDQQLLTYEITAQALRQRGAGNDSAGLVAARQYRTMDTEAVAFLNLCAHRAGVTWGTPVDQVARFALAVLDGAVLRWLVDRDSDAARTAFDDLVQIIAAKALEGEGSW,not soluble
8,MIKISYSPYTLKPVQSLNAATAATAREGVLLKVEWNDGLYGFADLHPWPELGDLSLEEQLSDLRMGRMTTQIEQSIWLARRDALLRKEKKHVFDGGEKIKNNYLLSHFQDLKPGFLDGLKNEGYNTVKVKMGRDLQKEADMLTHIAASGMRMRLDFNALGSWQTFEKFMVNLPLTVRPLIEYVEDPFPFDFHAWGEARKLAKIALDNQYDKVPWGKIASAPFDVIVIKPAKTDVDKAVAQCQKWNLKLAVTSYMDHPVGVVHAVGVAMELKDKYGDMILESGCLTHRLYQMDSFAAELSTQGPYLLKNKGTGVGFDKLLEALTWYQLKVR,soluble
9,MVEKELEEKVYKSIIKTIKDTPLEEFYTSGHRTCQGCESALVMRFLAKAAGPRTIVIGATGCMYVANTTYYTTSWIVPWVHTQLGGTGAAALGTAAALRALMRKGKIKQEPINVIAFCGDLGCADMGLSGVSNAMTYDYNLLIILYDNESSANTDIQETSMTPFGAQTSFSRPGKQRRIMKKRWKKSVVPMIIAGHRNVRYAATMTPAYPLDSMNKIRKALTIGGPTFIHSLDPCPKGWDYDPKFSHELGVLAVETGLWPLYEYIDGEIVYNEPTKSIVEGRMKRKPVKEYLEKQGRFSHFTEEDIEYVQRMVDEMYEEWEIPGVMPIKSINAKISDK,not soluble
10,SPVSPAGSHKQQNFGLNNATQPKKSISFFATMKATSVKGYTGANQSRMAVSKTVLIPPELKTVEKPNPNIKTTQVFDINGTDVTPRPLYHPDPLTGTAKPSKLLTSQEGSLGSEFISSYSLYQNTINPSTLGQFTRSVLGSSTVSKSSVSASESIAEDLEEPSYKRERLTSFTDLQVIRAAPEKIVTKEDLEKNIEIILTETETLRFFDLPTVMVSVESEEAEKVTQRNKNYEVLCRNRLGNDLYVERMMQTFNGAPKNKDVQCDKIIMEDKGIMSTAWDLYDSYNAMELVSLSVKQSVVESSSKANVLPKDQDQRLPGSTTEKNSETSSLMDIENVILAKIHEDEEDHSDAILKSDKFHQDLFFMERVLMENIFQPKLAAYRQLPVLKEPEPEEPEDVLESAKHEEVEEESKKEEEEEIHAEESTIPANLERLWSFSCDLTKGLNVSSLAWNKTNPDLLAVGYGHFGFKEQKRGLACCWSIKNPMVTQTRIRSIFIWLLTKFS,soluble
11,MSKYSDAKELASLTLGKKTEYANQYDPSLLQPVPRSLNRNDLHLSATLPFQGCDIWTLYELSWLNQKGLPQVAIGEVSIPATSANLIESKSFKLYLNSYNQTRFASWDEVQTRLVHDLSACAGETVTVNVKSLNEYTAEPIVTMQGECIDDQDIEIANYEFDDALLQGAAQGEEVSEVLHSHLLKSNCLITNQPDWGSVEIAYHGAKMNREALLRYLVSFREHNEFHEQCVERIFTDIMRYCQPQSLTVYARYTRRGGLDINPFRSSHQSAPNHNQRMARQ,not soluble
12,DMNYTYTSIAAIDGNIKTFVAAPRVGYRWQYDGGRELRVFVGAMYQNVQQELSGDLKSLNLPPQLLGLVENLSPDAGFNVSQSADENWNSVLGFQYAFNKDWEILMEAGFGERETLFFSLGRRF,not soluble
13,MEHTKKFKSLNLHGFDRSTEDYGKRPFVLTAKLLEDQKKAIYGCAFNQYAGIDEEQAVATVGGSFLHMYSVPIDINNIELQWSCNFPTDKSSKVEREESLFTVTWCYDTYEAENDRNPFKVVTGGTLGHIYVIDYVSRKLSNRLRSVGWEINDIRTCPANSNLIVCASSDQSIRIHHIRNEACLIVIGGLECHAGTILSVDWSTDGDFILSCGFDHQLMEWDLSVKQVKEHLERACKALHQDKINVLTQSQDIPYVSKGTMRKSAVSRNIPDKEEDQLLELHRELIPRPSCLLPIYTPSSVSTDMHSDYVDCIRFLIGTNYALSKGCGNEKAIHFWRFGPPKGEVENRIHGNVLRPKSCTTKFRTMNVPSGSAWFIKFAVDPRRRWLVCGGAGGSVMFFDLRNNEETNPTHTCSVGSRTVRQASFSTCGRFLVLVTDEGFVCRFDRVSASVDAKDLFLMSSPTSSKDYSSPKHSFMLTVDSNLQSDKKKTFLNVQSSSSAGSTKHCQIPMSKDEYFETRGKLDSVDVIDQFRQRQQ,not soluble
14,MSLALIVQKFGGSSVGSVERIQAVAQRVYKTVKAGNSLVVVVSAMGKTTDGLVKLANEISRNPNRREMDMLLSTGEQVTIALLSMALQELGQPAISMTGAQVGIVTEAEHTRARILHIETERVEGHIKEGKVVVVAGFQGISSNGSLEITTLGRGGSDTSAVALAAALQADFCEIYTDVPGILTTDPRIVPEAQLMGEITCNEMLELASLGAKVLHPRAVEIARNYGMPLVVKSSWTDDPGTWVTTPKPQGRSLINLELARPVDDVELDTDQAKVALLRVPDKPGVAAKLFGEISRQKVDVDLIIQSIHEGNSNDIAFTVTTPILKRAEAVAAAIAPSLRSPSHPKSDEAEVMVEQNIAKVSIAGAGMIGRPGVAAQMFATLAEAGVNIQMISTSEVKVSCVIDAQDGDRAIIALRKAFEIETPLHSQLPTPSSLSTHNSPPVRGVALDLNQARLAIRQVPDRPGMAAQLFGILSQHNISVDMIIQSQRCRIVDGVPRRDIAFTVPRMDGETAQKLLCQVAPELGWGDVVLDSAIAKVSIVGAGMVGQPGVAAKMFEALAKHQINIQMIATSEIKISCVVSQEQGVQALQVIHTAFELAGTEKFVVPAEGHHHHHH,not soluble
15,AHHHHHHGSKEIVERVKTKTKIPVYERSVENVLSAVLASDDIWRIVDLSEEPLPLVVAILESLNELGYVTFEDGVKLTEKGEELVAEYGIGKRYDFTCPHCQGKTVDLQAFADLLEQFREIVKDRPEPLHEFDQAYVTPETTVARVILMHTRGDLENKDIFVLGDDDLTSIALMLSGLPKRIAVLDIDERLTKFIEKAANEIGYEDIEIFTFDLRKPLPDYALHKFDTFITDPPETLEAIRAFVGRGIATLKGPRCAGYFGITRRESSLDKWREIQKLLLNEFNVVITDIIRNFNEYVNWGYAEETRAWKLIPIKKLPEYNWYKSYMFRIETLEGSRGYEDEIPEEDIYNDEESSTT,soluble
16,MKDVAKLLKILPPTFNETVLLPVQTQLKEHYPRTVSLVKNLVSPLPEEYRFLTEVLLSVLLSGEISETIPYQALLVAHGESTATSIQAVANKLCGTYIFDAINMPLTSSVRDIVAEVKEWLSQRDTSQGVIMLVDMGSLTQLYKSLKPQILGELLVINNLTTAYALEIGHQLMNEQLFYGIAKTAEKKFKTDVQYFEGFSVEKNIIVSSISGLDIAKQIKQICQKYLYTDIKVITLKYKDLVNTLDIANAEENYLKETSLILTTSYLDNHTNVASVNLLDMLDEDAGTQLMEPFQNLMHPNNIDSMINEFVHFFSKEGLSEKLEFLNPDVIIKQVENVTKNIEKRFDLTLSGKMKFNLMMHNALMVERTMLGVEDYEIPANLEELTINQKPFFQNAKNIFYTLEQFYRIEISNWELYVIYEILSSR,not soluble
17,MSDEGLAPGKRLSEIRQQQGLSQRRAAELSGLTHSAISTIEQDKVSPAISTLQKLLKVYGLSLSEFFSEPEKPDEPQVVINQDDLIEMGSQGVSMKLVHNGNPNRTLAMIFETYQPGTTTGERIKHQGEEIGTVLEGEIVLTINGQDYHLVAGQSYAINTGIPHSFSNTSAGICRIISAHTPTTF,not soluble
18,MSLFINKEAELQWVREYARRSHATPFVIYGPEGCGKTALALEAVRRFSSWYAGGIALYIDGKARRAAEAVKSNVNIGDVLAEVGGLAGSVGRSAARLAVWLLGKIVEKIAERFAPMNILVVDELFSAVGVSEGALAVKYAKELGDRVLRSKKAELGEIPKPLAEASVSYLIFSSEGSSRRELSRHNWAHIALMWNMGERGFQQLGEILGAPDFSAAWRLCGGQPPLPFPISRAGLGRGKIPNSNREGHHHHHH,soluble
19,LAADQFIVDRPMPEDPYGKTIIAGYHWFSDWGRDTMISLPGLTISTGRPEVARSIIRTFARYVDQGMLPNRFPDAGEQPEYNTVDATLWYFEAVRAYYSATDDDTLLGELFPILADIIDWHCRGTRYNIHLDAADGLLYAGVTGVQLTWMDAKVDDWVVTPRIGKPIEVNALWYNALRTMAKFARHLGKPHQEYEAMADRAKYRFSRFWNDETGYCYDVLDSPNGDDAALRPNQIFAVSLPESPLTPAQQRSVVEVCGRRLLTSHGLRSLAPDHPQYQGKYGGNQYQRDGAYHQGTVWGWLLGPFVLAHLRVYKNPEQARQFLEPMANHLTKHGLGSLSEIFDGDAPMTARGCIAQAWTVAEVLRAWFATES,not soluble
20,MLKKRKLGRRIGEIQAGEKLVFQAAIEDKDLLLYLGLTDDANPLYIQHDYASQTPFGKPVVPPVMLTGMITSAVSKYLPGPGSYITRQDLRFLRPVYHYETLEFLLEVADVDEAGHCVTLSVMATRGAETVLDGTLSVCPPHTLPRLDGRVLENF,not soluble
